Measured values: PMC3664799 (Nucleic Acids Research, 2013)

T1: DnaEBs DNA polymerase (Bacillus subtilis DnaE) (Bacillus subtilis, UniProt O34623 1-1115)
T1 sequence (looked up): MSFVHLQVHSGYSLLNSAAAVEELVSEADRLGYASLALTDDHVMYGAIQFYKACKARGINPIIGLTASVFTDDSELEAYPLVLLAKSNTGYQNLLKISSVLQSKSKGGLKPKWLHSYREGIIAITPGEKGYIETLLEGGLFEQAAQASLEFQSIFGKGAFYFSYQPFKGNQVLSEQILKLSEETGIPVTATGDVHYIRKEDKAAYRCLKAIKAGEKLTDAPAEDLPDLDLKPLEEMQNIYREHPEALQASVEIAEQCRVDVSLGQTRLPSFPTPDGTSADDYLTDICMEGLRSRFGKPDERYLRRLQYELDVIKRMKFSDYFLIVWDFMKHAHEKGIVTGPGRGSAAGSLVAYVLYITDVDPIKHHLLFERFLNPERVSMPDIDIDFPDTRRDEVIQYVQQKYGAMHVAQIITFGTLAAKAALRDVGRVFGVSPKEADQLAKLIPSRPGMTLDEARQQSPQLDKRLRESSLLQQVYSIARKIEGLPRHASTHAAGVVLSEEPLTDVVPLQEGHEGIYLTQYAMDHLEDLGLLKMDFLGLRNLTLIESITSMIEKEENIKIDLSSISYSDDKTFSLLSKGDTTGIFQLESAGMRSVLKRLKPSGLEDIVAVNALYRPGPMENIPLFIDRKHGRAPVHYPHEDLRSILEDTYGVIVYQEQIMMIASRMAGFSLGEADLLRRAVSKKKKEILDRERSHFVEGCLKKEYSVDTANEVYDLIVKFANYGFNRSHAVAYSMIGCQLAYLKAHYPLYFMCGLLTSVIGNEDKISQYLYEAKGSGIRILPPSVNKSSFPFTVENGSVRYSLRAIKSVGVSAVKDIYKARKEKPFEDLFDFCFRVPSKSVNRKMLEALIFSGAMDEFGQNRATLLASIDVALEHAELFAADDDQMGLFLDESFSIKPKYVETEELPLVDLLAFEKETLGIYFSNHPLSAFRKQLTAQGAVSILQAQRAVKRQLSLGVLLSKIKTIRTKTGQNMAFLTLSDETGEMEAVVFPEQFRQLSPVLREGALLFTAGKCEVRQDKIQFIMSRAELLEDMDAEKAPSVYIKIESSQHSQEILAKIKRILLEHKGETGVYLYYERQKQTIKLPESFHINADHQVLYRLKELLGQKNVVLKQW

B1: DnaC6-DnaI6 complex (co-purified DnaC helicase and DnaI loader) (complex, Bacillus subtilis)
chain 1: MTDLLNDRLPPQNIEAEQAVLGAIFLQPSALTLASEVLIPDDFYRMSHQKIYNAMLVLGDRGEPVDLVTVTSELANTDLLEEVGGISYLTDIANSVPTAANIEYYAKIVEEKSILRRLIRTATTIAQDGYTREDEVEDLLSEAEKTIMEVAQRKNTSAFQNIKDVLVQTYDNIEQLHNRKGDITGIPTGFTELDRMTAGFQRNDLIIVAARPSVGKTAFALNIAQNVATKTDESVAIFSLEMGAEQLVMRMLCAEGNINAQNLRTGNLTEEDWGKLTMAMGSLSNSGIYIDDTPGIRVSEIRAKCRRLKQESGLGMILIDYLQLIQGSGRSKDNRQQEVSEISRELKSIARELQVPVIALSQLSRGVEQRQDKRPMMSDIRESGSIEQDADIVAFLYRDDYYDKETENKNIIEIIIAKQRNGPVGTVSLAFVKEYNKFVNLERRFDDAGVPPGA
chain 2: MEPIGRSLQGVTGRPDFQKRLEQMKEKVMKDQDVQAFLKENEEVIDQKMIEKSLNKLYEYIEQSKNCSYCSEDENCNNLLEGYHPKLVVNGRSIDIEYYECPVKRKLDQQKKQQSLMKSMYIQQDLLGATFQQVDISDPSRLAMFQHVTDFLKSYNETGKGKGLYLYGKFGVGKTFMLAAIANELAEKEYSSMIVYVPEFVRELKNSLQDQTLEEKLNMVKTTPVLMLDDIGAESMTSWVRDEVIGTVLQHRMSQQLPTFFSSNFSPDELKHHFTYSQRGEKEEVKAARLMERILYLAAPIRLDGENRRHP

Key:
[1] = target: T1, DnaEBs DNA polymerase (Bacillus …); test: SPR
[2] = target: B1; test: SPR
[3] = target: T1, DnaEBs DNA polymerase (Bacillus …); test: SEC

Row | Ka [1] [M⁻¹] | Kd [1] [nM] | koff [1] [s⁻¹] | kon [1] [M⁻¹ s⁻¹] | Ka [2] [M⁻¹] | Kd [2] [nM] | koff [2] [s⁻¹] | kon [2] [M⁻¹ s⁻¹] | binding result [3] | Binder
1 | 1.33e+08 | 752 | 0.00181 | 2400 | 3.77e+06 | 295 | 0.000287 | 1080 |  | DnaG primase (Bacillus subtilis) (enzyme, UniProt P05096 1-603, looked up) MGNRIPDEIVDQVQKSADIVEVIGDYVQLKKQGRNYFGLCPFHGESTPSFSVSPDKQIFHCFGCGAGGNVFSFLRQMEGYSFAESVSHLADKYQIDFPDDITVHSGARPESSGEQKMAEAHELLKKFYHHLLINTKEGQEALDYLLSRGFTKELINEFQIGYALDSWDFITKFLVKRGFSEAQMEKAGLLIRREDGSGYFDRFRNRVMFPIHDHHGAVVAFSGRALGSQQPKYMNSPETPLFHKSKLLYNFYKARLHIRKQERAVLFEGFADVISAVSSDVKESIATMGTSLTDDHVKILRRNVEEIILCYDSDKAGYEATLKASELLQKKGCKVRVAMIPDGLDPDDYIKKFGGEKFKNDIIDASVTVMAFKMQYFRKGKNLSDEGDRLAYIKDVLKEISTLSGSLEQEVYVKQLASEFSLSQESLTEQLSVFSKQNKPADNSGETKTRRAHLTTKARQKRLRPAYENAERLLLAHMLRDRSVIKKVIDRVGFQFNIDEHRALAAYLYAFYEEGAELTPQHLMARVTDDHISQLLSDILMLQVNQELSEAELSDYVKKVLNQRNWSMIKEKEAERAEAERQKDFLRAASLAQEIVTLNRSLK
2 |  |  |  |  |  |  |  |  | binds | B1
